Results as given in the supplement of paper PMC10567573.

B1: ESRRA (parent)
chain: LGVAQRSLPLQDELAFAEDLVLDE

Variants of: B1
Assay: protein stability index of a GFP-peptide fusion (GPS, HEK-293T) (PSI 1-6); higher = more stable
Conditions: c terminus: a fixed tail appended
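Also: lentivirally expressed fusions sorted by FACS into six bins by GFP to DsRed ratio, PSI derived from sequencing read proportions per bin multiplied by bin number.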

Row | Variant | protein stability index
1 | LGVAQRSLPLQDELAWAEDLVLDE | 2.45
2 | LGVAQRSLPLQDELAIAEDLVLDE | 2.34
3 | LGVAQRSLPLQDELARAEDLVLDE | 3.03
4 | LGVAQRSLPLQDELASAEDLVLDE | 4.66
5 | LGVAQGSLPLQDELAFAEDLVLDE | 2.56
6 | LGVAQRSLPLQDELAFAEDLVLKE | 2.41
7 | LGVAQRSLPLQDELAFAEDLVLRE | 2.51
8 | LGVAQRSLPLQDELAFAEDLVLEE | 2.65
9 | LGVAQRSLPLQDELAFAEDLVLAE | 3.11
10 | LGVAQRSLPLQDELAFAEDLVLWE | 2.1
11 | LGVAQRSLPLQDELAFAEDLVLHE | 2.34
12 | LGVAQRSLPLQDELAFAEDLVLME | 2.01
13 | LGVAQRSLPLQDELAFAEDLVLVE | 1.88
14 | LGVAQRSLPLQDELAFAEDRVLDE | 4.19
15 | LGVAQRSLPLQDELAFAEDMVLDE | 2.16
16 | LGVAQRSLPLQDELAFAEDFVLDE | 4.98
17 | LGVAQRSLPLQDDLAFAEDLVLDE | 2.5
18 | LGVAFRSLPLQDELAFAEDLVLDE | 1.87
19 | LGVADRSLPLQDELAFAEDLVLDE | 2.77
20 | LGVATRSLPLQDELAFAEDLVLDE | 2.39
21 | LGVAYRSLPLQDELAFAEDLVLDE | 1.97
22 | LGVASRSLPLQDELAFAEDLVLDE | 4.29
23 | LGVAIRSLPLQDELAFAEDLVLDE | 2.17
24 | LGVAARSLPLQDELAFAEDLVLDE | 2.51

Row | Variant | protein stability index
25 | LGVANRSLPLQDELAFAEDLVLDE | 2.63
26 | LGWAQRSLPLQDELAFAEDLVLDE | 2.82
27 | LGSAQRSLPLQDELAFAEDLVLDE | 2.64
28 | LGTAQRSLPLQDELAFAEDLVLDE | 2.92
29 | LGQAQRSLPLQDELAFAEDLVLDE | 2.84
30 | LGVAQRSLPLQDELAFAEDLGLDE | 5.31
31 | LGVAQRSLPLQDELAFAEDLPLDE | 5.27
32 | LGVAQRSLPLQDEKAFAEDLVLDE | 5.15
33 | LGVAQRSLPLQDESAFAEDLVLDE | 5.66
34 | LGVAQRSLPLQDECAFAEDLVLDE | 5.43
35 | LGVAQRSLPLQDEEAFAEDLVLDE | 5.5
36 | LGVAQRSLPLQDEHAFAEDLVLDE | 5.43
37 | LGVAQRSLPLQDELAFAKDLVLDE | 4.58
38 | LGVAQRSLPLQDELAFACDLVLDE | 4.09
39 | LGVAQRSLPLQDELAFAGDLVLDE | 5
40 | LGVAQRSLPLQDELAFASDLVLDE | 4.4
41 | LGVAQRSLPLQDELAFAFDLVLDE | 3.3
42 | LFVAQRSLPLQDELAFAEDLVLDE | 1.87
43 | LLVAQRSLPLQDELAFAEDLVLDE | 2.21
44 | LIVAQRSLPLQDELAFAEDLVLDE | 1.89
45 | LQVAQRSLPLQDELAFAEDLVLDE | 2.98
46 | LGVAQRSKPLQDELAFAEDLVLDE | 4.38
47 | LGVAQRSRPLQDELAFAEDLVLDE | 2.02
48 | LGVAQRSIPLQDELAFAEDLVLDE | 3.03

Row | Variant | protein stability index
49 | LGVAQRSLPLQIELAFAEDLVLDE | 1.74
50 | LGVAQRSLPLQLELAFAEDLVLDE | 1.88
51 | LGVAQRSLPLQQELAFAEDLVLDE | 1.7
52 | LGVAQRSLPLQTELAFAEDLVLDE | 1.86
53 | LGVAQRSLPLQDELHFAEDLVLDE | 4.39
54 | LGVAQRSLPLQDELCFAEDLVLDE | 3.93
55 | LGVAQRSLPLQDELGFAEDLVLDE | 4.74
56 | LGVAQRSLPLQDELSFAEDLVLDE | 3.68
57 | LGVAQRSLPLQDELMFAEDLVLDE | 3.49
58 | LGVAQRSLPLQDELAFAEDLVLDC | 1.66
59 | LGVAQRSLPLQDELAFAEDLVLDH | 2.57
60 | LGVAQRSLPLQDELAFAEDLVLDN | 3.24
61 | LGVAQRKLPLQDELAFAEDLVLDE | 3.13
62 | LGVAQRVLPLQDELAFAEDLVLDE | 2.94
63 | LGVAQRGLPLQDELAFAEDLVLDE | 2.79
64 | LGVAQRFLPLQDELAFAEDLVLDE | 2.32
65 | LGVAQRSLPLQDELAFLEDLVLDE | 4.3
66 | LGVAQRSLPLQDELAFREDLVLDE | 4.83
67 | LGVAQRSLPLQDELAFNEDLVLDE | 5.35
68 | LGVAQRSLPTQDELAFAEDLVLDE | 5.47
69 | LGVAQRSLPLQDELAFAEDLVYDE | 3.98
70 | LGVAQRSLPLQDELAFAEDLVVDE | 4.14
71 | LGVAQRSLPLQDELAFAEDLVHDE | 3.52
72 | IGVAQRSLPLQDELAFAEDLVLDE | 2.2

Row | Variant | protein stability index
73 | DGVAQRSLPLQDELAFAEDLVLDE | 4.27
74 | YGVAQRSLPLQDELAFAEDLVLDE | 2.79
75 | SGVAQRSLPLQDELAFAEDLVLDE | 3.75
76 | FGVAQRSLPLQDELAFAEDLVLDE | 2.81
77 | TGVAQRSLPLQDELAFAEDLVLDE | 3.5
78 | RGVAQRSLPLQDELAFAEDLVLDE | 2.18
79 | LGVAQRSLPLQDELAFAELLVLDE | 2.16
80 | LGVAQRSLPLQDELAFAEHLVLDE | 1.83
81 | LGVAQRSLPLQDELAFAEWLVLDE | 2.23
82 | LGVAQRSLPLQDELAFAERLVLDE | 2.01
83 | LGVAQRSLLLQDELAFAEDLVLDE | 3.89
84 | LGVAQRSLELQDELAFAEDLVLDE | 3.45
85 | LGVAQRSLWLQDELAFAEDLVLDE | 3.21
86 | LGVAQRSLNLQDELAFAEDLVLDE | 4.18
87 | LGVAQRSLPLRDELAFAEDLVLDE | 2.94
88 | LGVAQRSLPLNDELAFAEDLVLDE | 4.12
89 | LGVAQRSLPLEDELAFAEDLVLDE | 4.87
90 | LGVAQRSLPLSDELAFAEDLVLDE | 4.37
91 | LGVNQRSLPLQDELAFAEDLVLDE | 2.94
92 | LGVQQRSLPLQDELAFAEDLVLDE | 3.33
93 | LGVDQRSLPLQDELAFAEDLVLDE | 2.84
94 | LGVKQRSLPLQDELAFAEDLVLDE | 2.58
